Measurements from US20220298478A1.

Molecular target: full length mesothelin (NM_005823) on target cells (human) (UniProt Q13421)
Test: cell-based or functional assay

full length mesothelin (NM_005823) on target cells (human), sequence (Q13421 other isoform, or with tags, fused parts or gaps limits assumed): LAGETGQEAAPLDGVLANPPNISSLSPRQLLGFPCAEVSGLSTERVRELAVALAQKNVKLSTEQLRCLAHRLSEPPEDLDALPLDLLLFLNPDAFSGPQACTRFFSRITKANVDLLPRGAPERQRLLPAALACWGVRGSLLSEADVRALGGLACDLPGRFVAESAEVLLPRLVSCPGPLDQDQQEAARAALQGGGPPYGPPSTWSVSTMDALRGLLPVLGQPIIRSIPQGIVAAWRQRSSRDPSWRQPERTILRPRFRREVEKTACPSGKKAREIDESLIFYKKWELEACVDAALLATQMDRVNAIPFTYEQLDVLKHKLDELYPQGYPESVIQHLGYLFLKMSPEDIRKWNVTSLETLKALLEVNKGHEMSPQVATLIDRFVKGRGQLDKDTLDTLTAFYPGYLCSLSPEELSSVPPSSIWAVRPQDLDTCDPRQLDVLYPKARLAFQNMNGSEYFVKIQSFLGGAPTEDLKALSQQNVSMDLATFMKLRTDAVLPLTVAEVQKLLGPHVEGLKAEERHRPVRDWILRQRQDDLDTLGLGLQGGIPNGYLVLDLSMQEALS

tumor cell lysis (luciferase assay), E:T 1-to-1, patients 1, 2, 4 and 5: 50%
tumor cell lysis (luciferase assay), E:T 1-to-5, patients 4 and 5: 50%
tumor cell lysis (luciferase assay), E:T 5-to-1, patient 3: 35%
tumor cell lysis (luciferase assay), E:T 5-to-1, patients 1, 2, 4 and 5: 75 to 97%
B1: SD1 CD3ε-TFP (protein, part only; not given: linker and CD3 epsilon subunit, part only)
chain, part: EVQLVESGGGLVQPGGSLRLSCAASGGDWSANFMYWYRQAPGKQRELVARISGRGVVDYVESVKGRFTISRDNSKNTLYLQMNSLRAEDTAVYYCAVASYWGQGTLVTVSS
